Source: PMC11329502

Columns and labels:
[1] = molecular target: Recombinant mouse nidogen-2 protein (mouse) (UniProt O88322); assay: ELISA
[2] = molecular target: Recombinant mouse nidogen-2 protein (mouse) (UniProt O88322)

Chain of UniProt O88322 (O88322 31-1403): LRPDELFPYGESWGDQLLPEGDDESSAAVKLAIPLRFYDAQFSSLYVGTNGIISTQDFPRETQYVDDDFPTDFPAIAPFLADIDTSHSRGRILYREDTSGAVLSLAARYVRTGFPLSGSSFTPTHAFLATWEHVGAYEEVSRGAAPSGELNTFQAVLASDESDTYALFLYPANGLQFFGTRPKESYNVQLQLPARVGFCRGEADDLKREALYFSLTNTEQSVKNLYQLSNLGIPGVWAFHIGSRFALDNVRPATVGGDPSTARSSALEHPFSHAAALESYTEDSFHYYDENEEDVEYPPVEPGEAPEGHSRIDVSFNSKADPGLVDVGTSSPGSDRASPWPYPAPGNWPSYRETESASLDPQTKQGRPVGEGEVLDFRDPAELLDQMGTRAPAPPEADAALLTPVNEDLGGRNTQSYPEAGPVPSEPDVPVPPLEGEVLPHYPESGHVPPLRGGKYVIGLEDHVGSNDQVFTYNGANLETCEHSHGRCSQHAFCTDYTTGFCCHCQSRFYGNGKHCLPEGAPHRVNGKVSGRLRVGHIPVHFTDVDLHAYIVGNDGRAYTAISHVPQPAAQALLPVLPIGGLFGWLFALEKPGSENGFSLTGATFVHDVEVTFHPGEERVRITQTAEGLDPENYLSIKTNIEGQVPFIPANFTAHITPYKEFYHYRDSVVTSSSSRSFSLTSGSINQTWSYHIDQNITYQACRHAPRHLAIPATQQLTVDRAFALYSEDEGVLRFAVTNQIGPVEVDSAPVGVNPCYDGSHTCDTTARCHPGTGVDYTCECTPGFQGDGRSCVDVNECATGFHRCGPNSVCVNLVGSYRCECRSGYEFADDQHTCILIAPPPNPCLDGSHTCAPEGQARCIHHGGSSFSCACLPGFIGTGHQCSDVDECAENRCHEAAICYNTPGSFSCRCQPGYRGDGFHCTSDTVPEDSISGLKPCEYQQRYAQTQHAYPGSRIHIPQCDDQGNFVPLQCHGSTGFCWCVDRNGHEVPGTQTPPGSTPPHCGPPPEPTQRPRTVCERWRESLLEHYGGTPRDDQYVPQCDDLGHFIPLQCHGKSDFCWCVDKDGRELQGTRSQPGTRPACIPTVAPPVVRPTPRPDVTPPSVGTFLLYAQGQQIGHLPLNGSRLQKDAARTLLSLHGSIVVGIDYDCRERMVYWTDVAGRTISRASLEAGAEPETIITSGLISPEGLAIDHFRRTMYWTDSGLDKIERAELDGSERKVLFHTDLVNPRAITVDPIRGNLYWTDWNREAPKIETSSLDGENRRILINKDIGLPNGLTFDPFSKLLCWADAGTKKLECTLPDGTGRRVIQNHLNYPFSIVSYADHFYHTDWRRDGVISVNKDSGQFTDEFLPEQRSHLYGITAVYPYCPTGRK

| Kd [1] | Substance | uptake of HCT-555 in mouse motor neurons pre-incubated with 20 μM of the domain, against buffer; pair to be blocked: nidogen and endogenous LAR [2] | uptake of nidogen-2 in axons of mouse motor neurons pre-incubated with 20 μM of the domain, against buffer; pair to be blocked: nidogen and endogenous LAR [2] |
| --- | --- | --- | --- |
| 5.6 µM | LAR FNIII1-4-FLAG (domain or fragment) | – | – |
| 6.8 µM | LAR FNIII5-7-FLAG (domain or fragment) | – | – |
| 1.4 µM | LAR FNIII5-FLAG (6×His-LAR FNIII5-FLAG) (domain or fragment) | – | – |
| 10 µM | PTPRδ FNIII5-7-FLAG (domain or fragment) | – | – |
| 2 µM | PTPRδ Ig1-3-His (domain or fragment) | – | – |

| Substance | Kd [1] | uptake of HCT-555 in mouse motor neurons pre-incubated with 20 μM of the domain, against buffer; pair to be blocked: nidogen and endogenous LAR [2] | uptake of nidogen-2 in axons of mouse motor neurons pre-incubated with 20 μM of the domain, against buffer; pair to be blocked: nidogen and endogenous LAR [2] |
| --- | --- | --- | --- |
| LAR FNIII2-FLAG (6×His-LAR FNIII2-FLAG) (domain or fragment) | 2 µM | 30% | 25% |
| LAR FNIII4-FLAG (6×His-LAR FNIII4-FLAG) (domain or fragment) | 1.9 µM | 30% | 25% |
| LAR FNIII7-FLAG (6×His-LAR FNIII7-FLAG) (domain or fragment) | 2.5 µM | 30% | 25% |
